What is called EC50 (read off the curve) is the concentration that produces a half-maximal response.

Assay [1] has as its target horseradish peroxidase (HRP) (horseradish) (UniProt P00433). Description: time course of soluble HRP on fimbriae pre-treated with mAb824.
Assay [2] deals with FimH^FocH (Escherichia coli K12; Escherichia coli) (UniProt P08191). Description: cell-based or functional assay.
The target in assay [3] is FimH^wt (FimH adhesin of E. coli K12) (Escherichia coli K12) (UniProt P08191). The assay can be described thus: cell-based or functional assay.
Assay [4] shares this target. Description: ELISA, mAb824 on FimH^wt fimbriae, with 1% αmm.
For assay [5] the target is unchanged. The assay can be described thus: ELISA, mAb824 on FimH^wt fimbriae, without αmm. For orientation: An ELISA detects its analyte on a solid surface through an enzyme-linked reagent.
Assay [6] has as its target FimH^FocH (Escherichia coli K12; Escherichia coli) (UniProt P08191). Description: ELISA, mAb824 on FimH^FocH fimbriae, with 1% αmm.
For assay [7] the target is unchanged. Description: ELISA, mAb824 on FimH^FocH fimbriae, without αmm.
In the next assay the test system is fimbrial FimH. Description: mAb21 ELISA on fimbriae after αmm / Fab824 pre-treatment. Format: binding, Escherichia coli. Particulars: FimH^wt pre-treated with PBS only. From the text: Bound antibodies were detected with a 1:5,000 diluted HRP-conjugated goat anti-mouse Fc antibody (Sigma-Aldrich). […] Binding of the latter antibody was detected using 1:5,000 diluted HRP-conjugated streptavidin (Invitrogen).

Another assay deals with yeast mannan. The assay can be described thus: FimH-dependent bacterial adhesion to yeast mannan (Example 7). Type of assay: cell-based. Particulars: 1% mannose. On the procedure:
FimH-dependent bacterial adhesion was analyzed as described previously. Briefly, Immulon 4HBX microtiter plates (Thermo Electron Corp.) were coated with 20 μg/mL of yeast mannan and plates were quenched with 0.2% BSA in PBS. Bacterial suspensions in PBS (OD540=2) were added to each well in a volume of 100 μl and incubated for 1 h at 37° C. After extensive washing, bound bacteria were stained with 0.1% (vol/vol) crystal violet for 20 min at room temperature and were washed several times with water. Then 100 μl of 50% (vol/vol) ethanol was added to each well, and the absorbance at a wavelength of 600 nm was measured. For inhibition, bacterial binding was tested in the presence of 1% mannose.

Another assay addresses T1, asialofetuin (UniProt P12763 19-359, oligosaccharides with terminal galactose (beta1-3)).
T1 construct: also called asialated fetuin
T1 sequence (looked up): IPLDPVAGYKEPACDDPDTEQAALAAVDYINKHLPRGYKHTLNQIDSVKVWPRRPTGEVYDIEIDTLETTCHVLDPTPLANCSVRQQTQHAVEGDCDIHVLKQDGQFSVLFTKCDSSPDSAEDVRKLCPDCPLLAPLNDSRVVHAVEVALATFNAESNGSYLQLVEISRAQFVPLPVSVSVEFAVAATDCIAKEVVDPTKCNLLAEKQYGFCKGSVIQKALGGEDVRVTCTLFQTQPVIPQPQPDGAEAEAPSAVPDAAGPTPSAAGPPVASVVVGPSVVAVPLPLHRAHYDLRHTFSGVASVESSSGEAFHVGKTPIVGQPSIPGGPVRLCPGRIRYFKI
Description: adhesion of bacteria expressing the FmlH variant to surface-coated asialofetuin, crystal violet, absorbance 600 nm.

Sequence of horseradish peroxidase (HRP) (horseradish) (P00433 31-338): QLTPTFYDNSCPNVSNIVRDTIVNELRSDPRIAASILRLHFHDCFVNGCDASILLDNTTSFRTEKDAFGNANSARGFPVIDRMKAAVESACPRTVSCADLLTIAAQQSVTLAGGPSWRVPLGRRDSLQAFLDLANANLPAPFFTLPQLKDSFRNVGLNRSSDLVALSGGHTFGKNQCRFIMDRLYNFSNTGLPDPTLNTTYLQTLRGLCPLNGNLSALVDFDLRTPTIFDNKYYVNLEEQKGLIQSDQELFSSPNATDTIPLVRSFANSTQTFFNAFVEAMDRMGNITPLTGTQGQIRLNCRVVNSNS
Description for asialofetuin: Briefly, Immulon 4HBX microtiter plates (Thermo Electron Corp.) were coated with 20 μg/mL of asialofetuin (Sigma-Aldrich) and plates were quenched with 0.2% BSA in PBS. Bacterial suspensions in PBS (OD540=2) were added to each well in a volume of 100 μl and plates were spun for 2 min at 750×g. After extensive washing, bound bacteria were stained with 0.1% (vol/vol) crystal violet for 20 min at room temperature and were washed several times with water. Then 100 μl of 50% (vol/vol) ethanol was added to each well, and the absorbance at a wavelength of 600 nm was measured. For inhibition, bacterial binding was tested in the presence of 1% galactose (Sigma).
Briefly, Immulon 4HBX microtiter plates (ThermoFisher Scientific) were coated with 20 μg/mL of asialofetuin (Sigma-Aldrich) and plates were quenched with 0.2% BSA in PBS. Bacterial suspensions in PBS (OD540=2) were added to each well in a volume of 100 μl and plates were spun for 2 min at 750×g. After extensive washing, bound bacteria were stained with 0.1% (vol/vol) crystal violet for 20 min at room temperature and were washed several times with water. Then 100 μl of 50% (vol/vol) ethanol was added to each well, and the absorbance at a wavelength of 600 nm was measured. For inhibition, bacterial binding was tested in the presence of 1% galactose (Sigma).

As for FimH^FocH (from UniProt P08191 22-300), in assay [1], the fold decrease in the rate of binding with mAb824 against untreated is above 10 fold.
As to mAb824 (antibody), the RBC agglutination: time (in min) upon which noticeable aggregation of RBC was observed in assay [2] and in assay [3] was above 60 min in each case. Moreover, the EC50 (read off the curve) in [4], in assay [5], in assay [6] and in assay [7] was 0.02 nM each time.
With α-methyl-D-mannopyranoside [αmm], the “αmm concentration at plateau of mAb21 binding” value with fimbrial FimH is 0.1-1.0 % αmm. Besides, in the assay on yeast mannan, the “inhibition of bacterial adhesion to yeast mannan-coated surface” value is on record as above 95%.

B1: FmIH^wt (full-length wild-type FmlH adhesin) (other, Escherichia coli CFT073)
chain: FSCNVDGGSSIGAGTTSVYVNLDPVIQPGQNLVVDLSQHISCWNDYGGWYDTDHINLVQGSAFAGSLQSYKGSLYWNNVTYPFPLTTNTNVLDIGDKTPMPLPLKLYITPVGAAGGVVIKAGEVIARIHMYKIATLGSGNPRNFTWNIISNNSVVMPTGGCTVDSRNVTVDLPDFPGSAEIPLGVYCSSEQKLSFYLSGATTDSSRQVFANTAPDATKASGVGVTLMRNGKILATGENVSLGTVNKSKVPLGLSATYGQTGNKVSAGTVQSVIGVTFIYE
notes: domain: pilin domain; Expressed on bacteria in the type 1 fimbrial background
Regarding B1, the binding result with asialofetuin was “no binding”.

The record behind these values is patent US20240165214A1, “COMPOSITIONS AND METHODS FOR STABILIZATION OF ALLOSTERIC PROTEINS” (priority 2021, published 2024).
